Six molecules from patent US20220251186A1 (TAVOTEK BIOTHERAPEUTICS HONG KONG, published 2022) can be followed below.

The target of assay [1] is T1, recombinant human TSLP (R&D Systems) (human, UniProt Q969D9 29-159).
T1 construct: also called thymic stromal lymphopoietin
Briefly: ELISA, plate coated with 1 µg/mL recombinant human TSLP, antibody titrated, HRP-conjugated secondary antibody, OD 450 nm.

A further assay addresses T2, Cynomolgus monkey TSLP (Cynomolgus monkey, UniProt A0A7N9CAT7 29-159).
T2 construct: also called cynomolgus TSLP
Kind of assay: ELISA, plate coated with cynomolgus monkey TSLP, antibody titrated, OD 450 nm. On the technique in general: In an ELISA, binding on a coated surface is turned into a signal by an enzyme label.

Assay [2] concerns the target T3, recombinant mouse FcRn (R&D Systems) (mouse, UniProt Q61559 22-297; P01887 21-119, limits assumed).
T3 sequence (looked up) 1: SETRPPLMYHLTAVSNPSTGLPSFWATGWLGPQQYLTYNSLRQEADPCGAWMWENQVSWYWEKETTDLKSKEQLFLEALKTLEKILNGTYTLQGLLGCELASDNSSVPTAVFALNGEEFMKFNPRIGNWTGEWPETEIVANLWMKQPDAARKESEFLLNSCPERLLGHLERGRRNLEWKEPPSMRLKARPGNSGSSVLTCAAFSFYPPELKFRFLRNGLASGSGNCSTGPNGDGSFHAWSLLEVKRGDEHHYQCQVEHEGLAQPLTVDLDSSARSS
T3 sequence (looked up) 2: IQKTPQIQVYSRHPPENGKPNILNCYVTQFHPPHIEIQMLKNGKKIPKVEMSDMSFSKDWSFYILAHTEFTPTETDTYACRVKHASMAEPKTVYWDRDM
Briefly: ELISA at pH 6.0, 1 µg/mL recombinant mouse FcRn coated, HRP anti-human detection.
Protocol: 1 μg/mL recombinant mouse FcRn (R&D Systems) were coated on ELISA plate.

The target in assay [3] is T1, recombinant human TSLP (R&D Systems). Briefly: ELISA, 1 µg/mL recombinant human TSLP coated, HRP anti-mouse detection.
For assay [4] the target is unchanged. Briefly: cell-based or functional assay.
Another assay concerns the target T4, mouse TSLP (R&D Systems) (mouse, UniProt Q9JIE6 20-140).
T4 sequence (looked up): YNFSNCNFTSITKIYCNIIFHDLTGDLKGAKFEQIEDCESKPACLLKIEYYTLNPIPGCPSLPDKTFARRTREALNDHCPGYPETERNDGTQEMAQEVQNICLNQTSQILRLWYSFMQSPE
Briefly: ELISA, plate coated with mouse TSLP, antibody titrated, HRP-conjugated anti-mouse secondary antibody, OD 450 nm.

Numbering of substitutions follows the chain as printed. Numbers in names are those of the source.

B1: TAVO6264 (antibody, human IgG2, kappa)
heavy: QVQLVQSGAEVKKPGSSVKVSCKASGYTFSSYWVNWVRQAPGQGLEWIGQIYPGDGDTDYAQKFQGRATLTADKSTSTAYMELSSLRSEDTAVYFCARGTYYNNYYGTDYWGQGTTVTVSSASTKGPSVFPLAPCSRSTSESTAALGCLVKDYFPEPVTVSWNSGALTSGVHTFPAVLQSSGLYSLSSVVTVPSSNFGTQTYTCNVDHKPSNTKVDKTVERKCCVECPPCPAPPVAGPSVFLFPPKPKDTLMISRTPEVTCVVVDVSHEDPEVQFNWYVDGVEVHNAKTKPREEQFNSTFRVVSVLTVVHQDWLNGKEYKCKVSNKGLPAPIEKTISKTKGQPREPQVYTLPPSREEMTKNQVSLTCLVKGFYPSDIAVEWESNGQPENNYKTTPPMLDSDGSFFLYSKLTVDKSRWQQGNVFSCSVMHEALHNHYTQKSLSLSPGK
light: DIQLTQSPSFLSASVGDRVTITCSVSSSISSSNLHWYQQKPGKAPKPWIYGTSNLASGVPSRFSGSGSGTEYTLTISSLQPEDAATYYCQQWSSYPLTFGQGTKLEIKRTVAAPSVFIFPPSDEQLKSGTASVVCLLNNFYPREAKVQWKVDNALQSGNSQESVTEQDSKDSTYSLSSTLTLSKADYEKHKVYACEVTHQGLSSPVTKSFNRGEC
notes: Human IgG2 Fc; also called humanized TAVO202 antibody 202H2/202L3 with human IgG2 Fc
For B1, the “EC50 (read off the curve)” value in assay [1] was around 2 ng/mL.

B2: TAVO7264 (antibody, human IgG1, kappa)
heavy: QVQLVQSGAEVKKPGSSVKVSCKASGYTFSSYWVNWVRQAPGQGLEWIGQIYPGDGDTDYAQKFQGRATLTADKSTSTAYMELSSLRSEDTAVYFCARGTYYNNYYGTDYWGQGTTVTVSSASTKGPSVFPLAPSSKSTSGGTAALGCLVKDYFPEPVTVSWNSGALTSGVHTFPAVLQSSGLYSLSSVVTVPSSSLGTQTYICNVNHKPSNTKVDKKVEPKSCDKTHTCPPCPAPEFEGGPSVFLFPPKPKDTLMISRTPEVTCVVVAVSHEDPEVKFNWYVDGVEVHNAKTKPREEQYNSTYRVVSVLTVLHQDWLNGKEYKCKVSNKALPAPIEKTISKAKGQPREPQVYTLPPSREEMTKNQVSLTCLVKGFYPSDIAVEWESNGQPENNYKTTPPVLDSDGSFLLYSKLTVDKSRWQQGNVFSCSVMHEALHNHYTQKSLSLSPGK
light: B1 light
notes: also called humanized TAVO202 antibody 202H2/202L3 with human IgG1 Fc (L234F, L235E, D265A, F405L)
Turning to B2, the binding result in the assay with Cynomolgus monkey TSLP is on record as “no binding (tested: 1 µg/mL)”.

B3: TAVO6265 (antibody, human IgG2, kappa)
heavy: B1 heavy
light: EIVLTQSPDFQSVTPKEKVTITCSVSSSISSSNLHWYQQKPDQSPKPWIYGTSNLASGVPSRFSGSGSGTDYTLTINSLEAEDAATYYCQQWSSYPLTFGQGTKLEIKRTVAAPSVFIFPPSDEQLKSGTASVVCLLNNFYPREAKVQWKVDNALQSGNSQESVTEQDSKDSTYSLSSTLTLSKADYEKHKVYACEVTHQGLSSPVTKSFNRGEC
notes: Human IgG2 Fc; also called humanized TAVO202 antibody 202H2/202L4 with human IgG2 Fc
For B3, the “EC50 (read off the curve)” value in assay [1] is around 2 ng/mL.

B4: TAVO9765 (antibody, human IgG1, kappa, L234A L235A)
heavy: B2 heavy with F238A, E239A, A269D, L409F, M432L, N438S
light: B3 light
notes: also called humanized TAVO202 antibody 202H2/202L4 with human IgG1 Fc (L234A, L235A, M428L, N434S)
As to B4, the “fold better potency than TAVO7265” value in assay [2] is around 10 fold.

B5: TAVO7265 (antibody, human IgG1, kappa)
heavy: B2 heavy
light: B3 light
notes: also called humanized TAVO202 antibody 202H2/202L4 with human IgG1 Fc (L234F, L235E, D265A, F405L)
In the case of B5, the binding result in the assay with Cynomolgus monkey TSLP was “no binding (tested: 1 µg/mL)”.

B6: mouse monoclonal anti-human TSLP antibody TAVO202 (antibody, V domains shown)
VH: QVQLQQSGAELVRPGSSVKISCKASGYTFSSYWVNWVKQRPGQGLEWIGQIYPGDGDTDYNGKFKGKATLTADKSSSTAYMQLSSLTSEDSAVYFCARGTYYNNYYGTDYWGQGTSVTVSS
VL: EIVLTQSPALMAASPGEKVTITCSVSSSISSSNLHWYQQKSETSPKPWIYGTSNLASGVPVRFSGSGSGTSYSLTISSMEAEDAATYYCQQWSSYPLTFGGGTKLEIK
notes: Mouse monoclonal antibody from hybridoma screening; also called mouse anti-TSLP antibody TAVO202
With B6, the concentration for a half-maximal effect (EC50) in assay [3] was determined as 2.4 ng/mL. In assay [4], the “IC50, neutralization of TSLP-driven STAT5 luciferase reporter gene expression (10 ng/mL human TSLP)” value came to 20 ng/mL and the “IC50, neutralization of TSLP-driven proliferation of transfected BAF3 cells (0.5 ng/mL human TSLP)” value amounted to 6.6 ng/mL. The binding result with mouse TSLP (R&D Systems) is reported as “no binding (tested: about 5 µg/mL)”.

In general, EC50 (read off the curve) refers to the midpoint of the concentration-response curve. What is called EC50 is the midpoint of the concentration-response curve.
